The record followed here is PMC11910503, “Novel metal sites revealed by spectroscopic and structural characterization of the ferric uptake regulator from Acidithiobacillus ferrooxidans”.

Data set [1] deals with Ferric Uptake Regulator from Acidithiobacillus ferrooxidans (AfFur), wild type, N-terminal His-tag (Acidithiobacillus ferrooxidans ATCC 23270). Kind of data set: SEC; size-exclusion chromatography of AfFur, data not shown; dimer in solution. In general terms: Size exclusion chromatography separates by hydrodynamic size, large species first.
Data set [2] shares this target. Description: SDS-PAGE and western blot; purified His-tagged AfFur on SDS-PAGE (Coomassie, Figure S2) and western blot with anti-6x His tag antibody (Figure S3); dimer. For orientation: In western blotting, separated proteins are transferred to a membrane and probed.
Another data set has as its target T1, AfFur H91K (Acidithiobacillus ferrooxidans ATCC …, UniProt B7J425 1-158, H91K).
T1 sequence: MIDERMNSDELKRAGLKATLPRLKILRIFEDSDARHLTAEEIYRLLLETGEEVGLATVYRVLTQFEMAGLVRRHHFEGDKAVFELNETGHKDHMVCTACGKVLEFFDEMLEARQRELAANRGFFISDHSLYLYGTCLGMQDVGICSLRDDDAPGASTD
Kind of data set: EMSA; 0.1 mM Mn2+, 5 mM Mg2+; shift persists with cold probe; 10 mM Tris pH 7.5, 50 mM KCl, 5 mM MgCl2, 0.1 mM MnCl2, 1 mM DTT, 2.5% glycerol, 50 ng/uL poly(dI-dC), 0.05% NP-40; 20 fmol probe, 2.9-3.9 ug protein in 20 uL. Particulars: protein: recombinant; tags: N-terminal His6 (pLATE51); chain copies: 2; label: 5' biotin.

A further data set has as its target T2, AfFur E84A (Acidithiobacillus ferrooxidans ATCC …, UniProt B7J425 1-158, E84A).
T2 sequence: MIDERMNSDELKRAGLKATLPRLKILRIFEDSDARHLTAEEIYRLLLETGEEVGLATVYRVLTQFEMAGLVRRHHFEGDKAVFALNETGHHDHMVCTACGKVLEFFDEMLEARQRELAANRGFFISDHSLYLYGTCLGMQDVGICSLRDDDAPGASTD
Described as above. As to conditions: protein: recombinant; tags: N-terminal His6 (pLATE51); chain copies: 2; label: 5' biotin.

The target in the next data set is T3, AfFur H93A (Acidithiobacillus ferrooxidans ATCC …, UniProt B7J425 1-158, H93A).
T3 sequence: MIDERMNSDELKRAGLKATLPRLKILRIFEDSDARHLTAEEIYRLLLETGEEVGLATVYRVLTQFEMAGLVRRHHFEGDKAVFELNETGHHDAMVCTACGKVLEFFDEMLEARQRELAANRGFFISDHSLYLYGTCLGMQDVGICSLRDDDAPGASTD
Kind of data set: EMSA; 0.1 mM Mn2+, 5 mM Mg2+; 10 mM Tris pH 7.5, 50 mM KCl, 5 mM MgCl2, 0.1 mM MnCl2, 1 mM DTT, 2.5% glycerol, 50 ng/uL poly(dI-dC), 0.05% NP-40; 20 fmol probe, 2.9-3.9 ug protein in 20 uL. As to conditions: protein: recombinant; tags: N-terminal His6 (pLATE51); chain copies: 2; label: 5' biotin. For orientation: In EMSA bound probe runs differently from free probe, usually more slowly.

Another data set deals with T4, AfFur E104K (Acidithiobacillus ferrooxidans ATCC …, UniProt B7J425 1-158, E104K).
T4 sequence: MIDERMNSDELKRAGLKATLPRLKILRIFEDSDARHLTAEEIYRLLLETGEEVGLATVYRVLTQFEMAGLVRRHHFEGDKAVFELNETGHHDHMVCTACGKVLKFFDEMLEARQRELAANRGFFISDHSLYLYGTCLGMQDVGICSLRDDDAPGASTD
Kind of data set: EMSA; 0.1 mM Mn2+, 5 mM Mg2+; lost with cold probe; 10 mM Tris pH 7.5, 50 mM KCl, 5 mM MgCl2, 0.1 mM MnCl2, 1 mM DTT, 2.5% glycerol, 50 ng/uL poly(dI-dC), 0.05% NP-40; 20 fmol probe, 2.9-3.9 ug protein in 20 uL. Particulars: protein: recombinant; tags: N-terminal His6 (pLATE51); chain copies: 2; label: 5' biotin.

In a further data set the target is T5, AfFur H91D (Acidithiobacillus ferrooxidans ATCC …, UniProt B7J425 1-158, H91D).
T5 sequence: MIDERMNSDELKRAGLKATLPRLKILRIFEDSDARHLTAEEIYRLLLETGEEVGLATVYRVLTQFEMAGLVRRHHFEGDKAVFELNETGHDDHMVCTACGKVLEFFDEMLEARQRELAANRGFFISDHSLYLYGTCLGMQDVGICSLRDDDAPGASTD
The data set is described as above. As to conditions: protein: recombinant; tags: N-terminal His6 (pLATE51); chain copies: 2; label: 5' biotin.

A further data set addresses T6, AfFur WT (Acidithiobacillus ferrooxidans ATCC …, UniProt B7J425 1-158).
T6 sequence: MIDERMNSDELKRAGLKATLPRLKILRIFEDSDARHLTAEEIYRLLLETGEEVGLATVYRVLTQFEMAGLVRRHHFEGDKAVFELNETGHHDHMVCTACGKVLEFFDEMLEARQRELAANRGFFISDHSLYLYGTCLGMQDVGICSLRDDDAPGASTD
Kind of data set: EMSA; holo, 0.1 mM Mn2+, 5 mM Mg2+; shift lost with 200-fold cold probe; 10 mM Tris pH 7.5, 50 mM KCl, 5 mM MgCl2, 0.1 mM MnCl2, 1 mM DTT, 2.5% glycerol, 50 ng/uL poly(dI-dC), 0.05% NP-40; 20 fmol probe, 2.9-3.9 ug protein in 20 uL. Particulars: protein: recombinant; tags: N-terminal His6 (pLATE51); chain copies: 2; label: 5' biotin.

The target in the next data set is T7, AfFur C96A (Acidithiobacillus ferrooxidans ATCC …, UniProt B7J425 1-158, C96A).
T7 sequence: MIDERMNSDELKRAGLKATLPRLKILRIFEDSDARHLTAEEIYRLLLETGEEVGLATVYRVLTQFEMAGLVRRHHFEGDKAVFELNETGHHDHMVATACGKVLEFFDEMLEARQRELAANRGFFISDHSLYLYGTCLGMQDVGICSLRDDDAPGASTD
Description: EMSA; 0.1 mM Mn2+, 5 mM Mg2+; also no shift + EDTA; 10 mM Tris pH 7.5, 50 mM KCl, 5 mM MgCl2, 0.1 mM MnCl2, 1 mM DTT, 2.5% glycerol, 50 ng/uL poly(dI-dC), 0.05% NP-40; 20 fmol probe, 2.9-3.9 ug protein in 20 uL. Particulars: protein: recombinant; tags: N-terminal His6 (pLATE51); chain copies: 2; label: 5' biotin.

The target in the next data set is T8, AfFur C145W (Acidithiobacillus ferrooxidans ATCC …, UniProt B7J425 1-158, C145W).
T8 sequence: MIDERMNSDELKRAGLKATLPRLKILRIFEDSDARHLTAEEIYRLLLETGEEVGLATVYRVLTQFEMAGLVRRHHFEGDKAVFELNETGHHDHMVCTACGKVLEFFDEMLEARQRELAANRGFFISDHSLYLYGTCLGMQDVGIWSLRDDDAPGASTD
The data set is described as above. As to conditions: protein: recombinant; tags: N-terminal His6 (pLATE51); chain copies: 2; label: 5' biotin.

A further data set has as its target T9, AfFur C136A (Acidithiobacillus ferrooxidans ATCC …, UniProt B7J425 1-158, C136A).
T9 sequence: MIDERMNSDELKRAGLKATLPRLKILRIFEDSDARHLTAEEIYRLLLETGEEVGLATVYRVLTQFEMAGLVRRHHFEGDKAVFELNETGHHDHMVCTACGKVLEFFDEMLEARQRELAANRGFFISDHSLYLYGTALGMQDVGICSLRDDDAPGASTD
The data set is described as above. As to conditions: protein: recombinant; tags: N-terminal His6 (pLATE51); chain copies: 2; label: 5' biotin.

The target of the next data set is T10, AfFur C145A (Acidithiobacillus ferrooxidans ATCC …, UniProt B7J425 1-158, C145A).
T10 sequence: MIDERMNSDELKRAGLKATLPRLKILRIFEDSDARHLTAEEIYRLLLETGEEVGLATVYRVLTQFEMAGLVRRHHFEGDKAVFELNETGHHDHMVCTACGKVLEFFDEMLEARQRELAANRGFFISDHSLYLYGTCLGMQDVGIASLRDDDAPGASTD
Described as above. As to conditions: protein: recombinant; tags: N-terminal His6 (pLATE51); chain copies: 2; label: 5' biotin.

In a further data set the target is T11, AfFur C99A (Acidithiobacillus ferrooxidans ATCC …, UniProt B7J425 1-158, C99A).
T11 sequence: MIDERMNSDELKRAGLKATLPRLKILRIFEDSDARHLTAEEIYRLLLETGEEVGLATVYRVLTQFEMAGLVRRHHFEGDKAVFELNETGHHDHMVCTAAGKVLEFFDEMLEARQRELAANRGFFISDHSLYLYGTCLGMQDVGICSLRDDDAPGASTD
The data set is described as above. Particulars: protein: recombinant; tags: N-terminal His6 (pLATE51); chain copies: 2; label: 5' biotin.

What is called stoichiometry N is the number of molecules, sites or subunits per partner or assembly. For “Ferric Uptake Regulator from Acidithiobacillus ferrooxidans (AfFur), wild type, N-terminal His-tag (natural protein)”, the stoichiometry N in data set [1] and in data set [2] was 2 throughout.

B1: Bio-MntH-Fur-box (dsDNA)
DNA 1: GGCATCAATAAACGGGAATCATTCTCGTCTACC
DNA 2: GGTAGACGAGAATGATTCCCGTTTATTGATGCC
On to B1, for which the binding result is “binds” with AfFur H91K; “binds” with AfFur E84A; “no binding” with AfFur H93A; “binds” with AfFur E104K; “binds” with AfFur H91D; “binds” in the data set with AfFur WT. Moreover, the binding result with AfFur C96A, with AfFur C145W, with AfFur C136A, in the data set with AfFur C145A and in the data set with AfFur C99A was “no binding” in each case.
